Assay results from paper PMC6596341.

Biological target: Aβ42 (human) (UniProt P05067)
Sequence (P05067 672-713): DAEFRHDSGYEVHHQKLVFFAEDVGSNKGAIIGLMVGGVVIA

- reaction half time (t1/2) of ThT-monitored fibril formation of 5 μM monomeric Aβ42 in the presence of 15 μM S100B, 50 mM Hepes pH 7.4, 1.1 mM CaCl2, 37°C, quiescent (Aβ42 alone t1/2 = 0.8 h): 2.2 h
B1: S100B (natural protein)
chain: MSELEKAMVALIDVFHQYSGREGDKHKLKKSELKELINNELSHFLEEIKEQEVVDKVMETLDNDGDGECDFQEFMAFVAMVTTACHEFFEHE
